Experiment: yeast display, Sf9 membrane polyspecificity reagent, FACS + sequencing; frameworks hold sequencing errors
Outline: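 Sorting gates, low and high (top ~1%), were placed on anti-HA fluorescence to track expression and on streptavidin fluorescence to track reagent binding. A clone's polyreactivity label is taken from the gate it came out of. The reagent was 10% biotinylated, detergent-solubilized Sf9 membrane, applied for 1 hour at 4 °C to galactose-induced yeast display cells.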
In the case of “QVQLVESGGGLVQAGGSLRLSCAASGRIFYYYAMLWYRQAPGKERELVAAIRRGGSTNYADSVKGRFTISRDNAKNTVYLQMNSLKPEETAVYYCAARSARLEYYYWGQGTQVTVSS”, the “polyreactivity (PSR sort gate)” value is reported as “high polyreactivity”.
For “QVQLVESGGGLVQAGGSLRLSCAASGRIFYYYGMGWYRQAPGKERELVAAISNGGRTYYADSVKGRFTISRDNAKNTVYLQMTSLKPEDTAVYYCAALTRGRGGYDYWGQGTQVTVSS”, the “polyreactivity (PSR sort gate)” value was “high polyreactivity”.
With “QVQLVESGGGLVQAGGSLRLSCAASGRIFYYYPMGWYRQAPGKEMELVARITGLTGRTYYADSVKGRFTISRDNSKNTVYLHMHSLKPQDTAVYYCAATDRWSRLGYWGQGTQVTVSS” the “polyreactivity (PSR sort gate)” value was “high polyreactivity”.
With “QVQLVESGGGLVQAGGSLRLSCAASGRIFYYYVMGWYRQAPGKERELVATITKRGGDTYYADSVKGRFTISRDNAKNTVYLQMNSLKPEDTAVYYCAAVYLYYSRSDLYDYWGQGTQVTVSS” the “polyreactivity (PSR sort gate)” value was “low polyreactivity”.
For “QVQLVESGGGLVQAGGSLRLSCAASGRIGAYAMGWYRQAPGKERELVAAIRWSTGSTYYADSVKGRFTISRDNAKNTVFLQMNSLKPEDTAVYYCAAEFVRRGGDFWGQGTQVTVSS”, the “polyreactivity (PSR sort gate)” value was “high polyreactivity”.
In the case of “QVQLVESGGGLVQAGGSLRLSCAASGRIGRYAMGWYRQAPGKERELVAAITWSGGSTYYADSVKGRFTISRDNAKNTVYLQMNSLKPEDTAVYYCATGRYRDQPRTGYDYWGQGTQVTVSS”, the “polyreactivity (PSR sort gate)” value is reported as “high polyreactivity”.
With “QVQLVESGGGLVQAGGSLRLSCAASGRIHVYTMRWYRQAPGQERELVAAITWSGTSTNYADSVKGRFTLSRDNAKNTVYLKMNILKPEDTAVYYCAADISGVLSVSNVRGFDYWGQGTQVTVSS” the “polyreactivity (PSR sort gate)” value was “low polyreactivity”.
For “QVQLVESGGGLVQAGGSLRLSCAASGRIIADNAMGWYRQAPGKERELVATISSGGSTSYADSVKGRFTLSRDNAKNTVYLQMNSLKPEDTAVYYCATPFTGPSGPYDYWGQGTQGTVSS”, the “polyreactivity (PSR sort gate)” value was “low polyreactivity”.
In the case of “QVQLVESGGGLVQAGGSLRLSCAASGRIIALNAMGWYRQAPGKERELVAAISRRGGSTYYADSVKGRFTISRDNAKNTVYLQMNSLKPEDTAVYYCATDSVRYGYDYWGQGTQVTVSS”, the “polyreactivity (PSR sort gate)” value is reported as “high polyreactivity”.
In the case of “QVQLVESGGGLVQAGGSLRLSCAASGRIIARNAMGWYRQAPGKEREFVAAITARGARTYYADSVKGRFTISRDNAKNTVYLQMNSLKPEDTAVYYCAVVQGNVYYTGDDYWGQGTQVTVSS”, the “polyreactivity (PSR sort gate)” value is reported as “high polyreactivity”.
In the case of “QVQLVESGGGLVQAGGSLRLSCAASGRIIAVYAMGWYRQAPGKERELVATIRGGGSTNYADSVKGRFTISRDNAKNTVYLQMNSLKPEDTAVYYCAALGGRYRASTYGYWGQGTQVTVSS”, the “polyreactivity (PSR sort gate)” value is reported as “high polyreactivity”.
In the case of “QVQLVESGGGLVQAGGSLRLSCAASGRIIGFYAMGRYRQAPGKERELFAAINTGGGTNYADSVKGRFTISRDNAKNTVYLQMNSLKPEDTAVYYCAARTYDYRARHKVGYWGQGTQVTVSS”, the “polyreactivity (PSR sort gate)” value is reported as “high polyreactivity”.
With “QVQLVESGGGLVQAGGSLRLSCAASGRIIGPYTMGWYRQAPGKEMEFVAAITRRGGSTYYADSVKGRFTISRDNAKNTVYLQMNSLKPEDTEVYYCAAVGQKRSLGYSWGQGTQVTVSS” the “polyreactivity (PSR sort gate)” value was “low polyreactivity”.
In the case of “QVQLVESGGGLVQAGGSLRLSCAASGRIIIYNAMGWYRQAPGKERQLVAAINRSGVSTHYADSVKGRFTISRDNAKNTVYLQMNSLKPEDTAVYYCARTVYGARSYDYWGQGTQVTVSS”, the “polyreactivity (PSR sort gate)” value is reported as “low polyreactivity”.
With “QVQLVESGGGLVQAGGSLRLSCAASGRIILDYAMGWYRQAPGKERELVAAITWRGGSTNYADSVKGRFTISRDNAKNTVYLQMNSLKPEDTAVYYCNADPDDQYDYWGQGTQVTVSS” the “polyreactivity (PSR sort gate)” value was “low polyreactivity”.
In the case of “QVQLVESGGGLVQAGGSLRLSCAASGRIINDYTMGWYRQAPGKERELVAAITTSTGSTYADSVKGRFTISRDNAKNTVYLQMNSLKPEDTAVYYCAADSRPGKYYEDDSWGQGTQVTVSS”, the “polyreactivity (PSR sort gate)” value is reported as “low polyreactivity”.
With “QVQLVESGGGLVQAGGSLRLSCAASGRIIQRNTMGWYRQAPGKERELVAAISGSTGRTYYADSVKGRFTISRDNAKNTVYLQMNSLKPEDTAVYYCNTVGRSSSLSVFLIGYGYWGQGTQVTVSS” the “polyreactivity (PSR sort gate)” value was “high polyreactivity”.
With “QVQLVESGGGLVQAGGSLRLSCAASGRIIRAYAMGWYRQAPGKERELVAAISGGSNTNYADSVKGRFKISRDNAKNTVYLQMNSLKPDDTAVYYCAADAGYWESLWYPYGFYWGQGTQVSVSS” the “polyreactivity (PSR sort gate)” value was “low polyreactivity”.
In the case of “QVQLVESGGGLVQAGGSLRLSCAASGRIIRIYTMGWYRQARGKERELVAAITKSGGSTSYADSVKGRFTISRDNAKNTVYLQMNSLKPEDTAVYYCNAKGWTRPPGYDYWGQGTQVTVSS”, the “polyreactivity (PSR sort gate)” value is reported as “high polyreactivity”.
With “QVQLVESGGGLVQAGGSLRLSCAASGRIIRYYVMGWYRQAPGKEREFVASISGRGASTYYADSVKGRFTISRDNAKNTVYLQMNSLKPEDTAVYYWNKESYFDTYRRYDSWGQGTQVTVSS” the “polyreactivity (PSR sort gate)” value was “low polyreactivity”.
In the case of “QVQLVESGGGLVQAGGSLRLSCAASGRIISSYAMGWYRQAPGKERELVAAITSSGGSTYYADSVKGRFTISRDNAKNTVYLQMNSLKPEDTAVYYCAARVFARYYTAYGVETRREEDYWGQGTQLTVSS”, the “polyreactivity (PSR sort gate)” value is reported as “low polyreactivity”.
For “QVQLVESGGGLVQAGGSLRLSCAASGRIISVNAMGWYRQAPGKERELVAAITTRGGTPYYADSVKGRFTISRDNAKNTVSLQMNSLKPEDTAVYYCAAESSWSVYWEWAHDYWGQGTQVTVSS”, the “polyreactivity (PSR sort gate)” value was “low polyreactivity”.
For “QVQLVESGGGLVQAGGSLRLSCAASGRIITFNPMGWYRQAPGKERELVAAISSRGDGTYYADSVKGRYTISRDNAKNSFYVQMNSLKPEDTAVYYCARYPDDYYDWGYDYWGHGTQVTVSS”, the “polyreactivity (PSR sort gate)” value was “low polyreactivity”.
With “QVQLVESGGGLVQAGGSLRLSCAASGRIIWSYAMGWYRQAPGKERELVAAIRSGGTTDYADSVKGRFTISRDNAKNTVYLQMNSLKPEDTAVYYCAADPYSVYGGDYWGQGTQVTVSS” the “polyreactivity (PSR sort gate)” value was “low polyreactivity”.
In the case of “QVQLVESGGGLVQAGGSLRLSCAASGRIIYIYAMGWYRQAPGKERELVAAITASSGSTNYADSVKGRFTISRDNAKNTVYLQMNSLKPEDTAVYYCAAAPSRTLLRQSKYYYWGQGTQVTVSS”, the “polyreactivity (PSR sort gate)” value is reported as “low polyreactivity”.
In the case of “QVQLVESGGGLVQAGGSLRLSCAASGRIIYRYAMGWYRQAPGKERELVAAISYRGGSTYYADSVKGRFTISRDNAKNTVYLQMNSLKPEDTAVYYCAADRRYYDWRYGGFDYWGQGTQVTVSS”, the “polyreactivity (PSR sort gate)” value is reported as “high polyreactivity”.
For “QVQLVESGGGLVQAGGSLRLSCAASGRILATYTMGWYRQAPGKERELVATITSGGRTTYADSVKGRFTISRDNAKNTVYLQMNSLKPEDTAVYYCNVANWYYRKYRPLWGRDYYWGQGTQVTVSS”, the “polyreactivity (PSR sort gate)” value was “high polyreactivity”.
With “QVQLVESGGGLVQAGGSLRLSCAASGRILGKNALGWYRQAPGKEREWVADISGRGDRTHYADSVKGRFTISRDNAKNTVYLQMNSLNAEYTAVYYCAKYHHPPGKGQSVSLGYDFWGQGTQVTVSS” the “polyreactivity (PSR sort gate)” value was “low polyreactivity”.
With “QVQLVESGGGLVQAGGSLRLSCAASGRILGKYAMGWYRQAAGKERELVAAIRLRGGSTYYADSVKGRFTISRDNAKNTVYLQMNSLKPEDTAVYYCAARYWDRSQAYNYWGQGTQVTVSS” the “polyreactivity (PSR sort gate)” value was “high polyreactivity”.
In the case of “QVQLVESGGGLVQAGGSLRLSCAASGRILGSYAMGWYRQAPGKERELVAAISSGARTNYADSVKGRFTISRDHAKNTVYLQMNCLKPEDTAVYYCAAATYNQDYSYDYWGQGTQVTVSS”, the “polyreactivity (PSR sort gate)” value is reported as “low polyreactivity”.
For “QVQLVESGGGLVQAGGSLRLSCAASGRILGSYAMGWYRQAPGKERELVAGISWRGGRTYYADSVKGRFTISRDNAKNTVYLQLNSLKPEDTAVYYCATRSSSRKYGYWGQGTQVTVSS”, the “polyreactivity (PSR sort gate)” value was “high polyreactivity”.
With “QVQLVESGGGLVQAGGSLRLSCAASGRILGSYAMGWYRQAPGKERELVAGISWRGGRTYYADSVKGRFTISRDNAKNTVYLQMNSLKPEDTAVYYCATRSSSRKYGYWGQGTQVTVSS” the “polyreactivity (PSR sort gate)” value was “high polyreactivity”.
For “QVQLVESGGGLVQAGGSLRLSCAASGRILGTYAMGWYRQAPGKERELVAAISGSGGDTYYADSVKGRFTISRDNAKNTVYLQMNSLKPEDTAVYYCAAEVPFTGGFFKYYYWGQGTQVTVSS”, the “polyreactivity (PSR sort gate)” value was “low polyreactivity”.
In the case of “QVQLVESGGGLVQAGGSLRLSCAASGRILGVNAMGWYRQAPGKERELVAAINWNGGSTYYADSVKGRFTISRDNAKNTVYLQMNSLKPEDTAVYYCAAERSLYYVYSREYWGQGTQVTVSS”, the “polyreactivity (PSR sort gate)” value is reported as “low polyreactivity”.
In the case of “QVQLVESGGGLVQAGGSLRLSCAASGRILGYYGMGWYIQAPGKERELVAAITSGGGSTYYADSVKGRFTISRDNAKNTVYLQMNSLKPEDTAVYYCNAVPSQHDEFDYWGQGTQVTVSS”, the “polyreactivity (PSR sort gate)” value is reported as “low polyreactivity”.
In the case of “QVQLVESGGGLVQAGGSLRLSCAASGRILHFYAMGWYRQAPGKERELVAAISKSGGSTYYADSVKGRFTISRDNAKNTVYLQMNSLKPEDTAVYYCAASFIRRGSYSTTSAPGRYYWGQGTQVTVSS”, the “polyreactivity (PSR sort gate)” value is reported as “high polyreactivity”.
For “QVQLVESGGGLVQAGGSLRLSCAASGRILHIYAMGWYRQAPGKERELVAAISWIGTSTYYADSVKGRFTISRDNAMNTVFLQMNSLKPEDTAVYYCAATGPRMYYWGQGTQVTVSS”, the “polyreactivity (PSR sort gate)” value was “high polyreactivity”.
For “QVQLVESGGGLVQAGGSLRLSCAASGRILHRNAMGWYRQAPGKERELVSAIRSRGGGTYYADSVKGRFTISRDNAKNTVYLQMKSLKPEDTAVYYCNTDRSTRTVGPGLYGYWGQGTQVTVSS”, the “polyreactivity (PSR sort gate)” value was “low polyreactivity”.
In the case of “QVQLVESGGGLVQAGGSLRLSCAASGRILKRKAMGLYRQAPGKERELVAAISWSTGTTYYADSVKGRLTISVDNAKNTVYLQMNSLKPEDTAVYYCAKKIVSGRRVDRNDYWGQGTQVTVSS”, the “polyreactivity (PSR sort gate)” value is reported as “low polyreactivity”.
With “QVQLVESGGGLVQAGGSLRLSCAASGRILKVYAMGWYRQAPGKERELVAAISVNGGRTYYADSVKGRFTISRDNAKNTVYLQMNSLKPEDTAVYYCAKRLYKPGNVFYSVDQSDYWGQGTQVTVSS” the “polyreactivity (PSR sort gate)” value was “low polyreactivity”.
With “QVQLVESGGGLVQAGGSLRLSCAASGRILNVYAMGWYRQAPGKERELHAAINYRGTNTYYADSVKGRFTISRDNAKNTVFLQMNSLKPEDTAVYYCAAERWYYNVYAEYSWGQGTQVTVSS” the “polyreactivity (PSR sort gate)” value was “high polyreactivity”.
For “QVQLVESGGGLVQAGGSLRLSCAASGRILNVYAMGWYRQAPGKERELVAAINYRGTNTYYADSVKGRFTISRDNAKNTVYLQMNSLKPEDTADYYCAARRHVYLRGSTFEFNYWGQGTHVTVSS”, the “polyreactivity (PSR sort gate)” value was “high polyreactivity”.
With “QVQLVESGGGLVQAGGSLRLSCAASGRILNWNVMGWYRQAPGKERELVAGISSDGSTYADSVKGRFTISRDNAKNTVYFQMNSLKPEDTAVYYCAADRVGLSRGYDYWGQGTQVTVSS” the “polyreactivity (PSR sort gate)” value was “low polyreactivity”.
